Assay results from the DeepSol protein solubility set.

experiment: soluble on expression in E. coli; label from the status in PepcDB or PDB records

Sequence | soluble on expression in E. coli
MTAATATANGNHSIEDPVVMKVQAASPIQETDFFENLYQMECFRTGEFYLKSGQMTPIYIDLRRIMSSPRVLRMAAQAMCEKIVASNLKFDYVVGVPYAALPLATLVSDILNVPMLMKRKEAKAYGTKQLIEGVYQPGGTVLLVEDVVTSGESIRETAEAIRNENLLVTDAIAVLDRQQGATANLAEDNLNFLSFLTMEKILDGLITKNEMTEERKHEIIAHLAKPF | soluble
MIRMPLATASLLAIAISLAGCGEGKDKAAAPAPAAAPAAPAAAPAAPAPAPAAAAQTDDAAAKAVVANYANMVSAVFDDAQGAAKKLSTAVDAFLAKPNDETLKAARDAWVAARVPYMQSEVFRFGNTIIDDWEGQVNAWPLDEGLIDYVAKDYQHALGNPGATANIIANTEIQVGEDKVDVKEITSEKLASLNELGGSEANVATGYHAIEFLLWGQDLNGTGPGAGARPASDYLEGAGATGGHNDRRRTYLKAVTDLLVSDLEEMAGNWKAGVADNYRATLEAESGESGLRKMLFGMGSLSLGELAGERMKVALEANSSEDEHDCFSDNTHNSHFYNGKGIRNVYLGEYTRTDGSKVSGPSLSSLVAKVDPATDATLRADLDDTQAKLQAIVDHANKGEHFDQLIGAGNTAGNQVVRDAIAALVKQTGAIEQAAGKLGITDLNPDNADHEF | soluble
SRVKKNVLDYNAWAEGTLKGIKQEKKAYKERHRLFFEGLSEAEKVEYATKMAHDAQIYDEPEFDPQELQSEYYRGLYAFDNRKNNVDSYK | soluble
MAHSTIPTLLCFCDEPLKRTNEGAEHVNQARRYAKWHVYRERGYETVPPTENPDSLLAACIAVARLSETAFEDAFGDIEAQIRSHYDDSTVELPFADADGSDILVYKKDIAVRPDPMTFDPPVLEQFLGQFSGDSDSPVVPAKADLDREVFDDLDFELKSVSGMHYLHNDGYDNERTVQSSQRLGTDPDATVEMIPVDPAEFGNFQHYVTSNLIYQARDVLLRMGVKPPIAFRAQGQGKYRATLEQQACPQYENYWDATADIQSWEPK | not soluble
MAHHHHHHMLHNGKKNPTQAVDDGNPRKSKHREVGSHCKGLDKKENINKSGEEHIKKVEGRENCEPHDIKRRGEIDKVLIQCEELQRKELEALKLIYVRDRELVIQNENDEKRDTIIHMQLNDENISDNVINLTFELPKDYPLKSFLLIDINVKNFTPDMNNYLNQEVYKDMPNYIAHENSILSIIYRINELVENIQNSKKTSVDHSYLSSEEREEYVEEGAFDPSEDQLIKDHVPFLYCSGMTYSHHRRVLARRLCYSHHILSLVKRTYIIKWAKDLKIGGYSKIGYPGIIICEGPKEEVDFYINSLNKLRWKHFDCRGMEDIILKEYEDLDDARVLPRTMYELDPKGMSTLSNICTECGLRDLFLTSMKIYHT | not soluble
GPGSMEFSGSTLSVVEVEHTVRQLRPFPLQDIGTAEWKNQREAVERLNMCTHSNAVLKKDDTVKAFLIEHEKLPVLLHELLVMEVWRQRVLPLIKDQIVQHPAGIYMYVQYEMVLLNLFECIAFHEEVVVALDEDVLELIDYCWRQASRLFAEQNVNEVQSKPTARDVSNAANTVEEVLKSADRQMLHAIYQRAMASLSILWFIIDRLNQLPLAASNSVLVKNDLILGLTEVMLLQPWLRRSSEATQKFFNGEFKDIPRADVLLVCTPEAHTWFSLHKLLCDPECRRRYSYTQSKKELILRIRHFLNDTLVDQIPALASLQRALEELSFLQPPSGTEEKFKSTLTIEQVPRIMTLVEVERKGSWDDLASTLRAMLQDPSVRNEDAMRLSRIFDEMFSDQLK | not soluble
MVVNYPRAYTAEQSRPINLVGKQGQAVQISIHYPSQYICANRERILPDWQEQALFWVVIVLQQSKYPLVKSTAEIEREKEHLREKFMRFGCDLAFELRDRGYLADLIDPRTGYPMLSRPGVIPHNDTAVVKALLNYPVLKNKCSVIVHPHWGTAVYPSIFLSAALEHHHHHH | not soluble
GHMASGLTIYFKKPDSWGTPHLYYYDTNPKVDEPTWSEAPEMEHYEGDWYTHTIEGVESVRLLFKDRGTNQWPGPGEPGFFRDQDGWFDGEWHVDRPG | soluble
MKKLTKGLGILLASSLVLGLAACGGGSDDKALSTEKITIGTTAGPHQQIAEEVQKLAKKDGLEIKIKTFDDYNTPNTALNDGDLDANNYQTIPFLEQQKKDKGYKLDVAFKTVAFPMGIYSNDIKDLKNLKKGDKIAVPNDPSNEYRGLKLFEDAGVIKLKDGVEEKATKKDIAENPLDLEIVELEASQIPAQLDEVAAAAINTNFAMGAGLSINKDAIYHEPTKDNPYPNVFVVRSANKDDEVVKTLEKYYHSDEVKAFIEKEFNGSVVPAFLEHHHHHH | soluble
SLVAVIGCCHGELNRLYMEVEKYENEKNEKVDLILCCGDMQTIRDENDLQDMAVKSHRSKKGDFWEYYEGLKKAPKLTIFIGGNHETPNVLIPLYYGGWVAPNIFYLGSSGVIRVGDVRVAGISGIYKNYDHFRGYYESKPFTEESKRSWYHIRWLEIQKLLLIENIKSNFLGSTESRKVDVMISHDWPNGIERFGNLNYLIRRKPYLKEDIELGRLGIPGCIELIEHLRPTFWFSGHHHCFFDASIEFENQLYSSEFRAIDKFKNSNSPVRYFDINSNKNDVRIYLDFEWLTILRSVKANIPKGNFTIDKNSIPKLSGPTKSDIDAIYKNLKEVIGDFDENHYEWPLWGQANGNFKNLQDQYNFINRIIEEG | not soluble
MSLKVVSLLTDFGDFYPGVMKGVILSLAPEARIVDITHSVEPQNILQGAFLLYHSFRYFRNAVHVAVVDPGVGSERRALVIEGKNHFFVGPDNGILYPSAVEDGIKAAYSIKEEISELVGELSSTFHGRDIFAPAAAMVVRGDYTYFEEINKEELEKLELFDCSIQGNKVRCRVVYVDRFGNVVTNLREVKGKGFYFRGVEFPFVKTYSDVDVGKPLSLIGSFGTLELSVREGSAAEMLGIKRGGGWIELEVLEGGSHHHHHH | soluble
MAQDIKNEEVEEVQEEEVVKTAEETTPEKSELDLANERADEFENKYLRAHAEMQNIQRRANEERQNLQRYRSQDLAKAILPSLDNLERALAVEGLTDDVKKGLGMVQESLIHALKE | not soluble
MADVALRITETVARLQKELKCGICCSTYKDPILSTCFHIFCRSCINACFERKRKVQCPICRSVLDKRSCRDTYQITMAVQNYLKLSEAFKKDIENMNTFKSLPPEKMFMESQMPLDITIIPENDGKRCAPDFAIPFLPVRRKRPSRPQPPSAFAEEPAEPVEPPEPATKQPVELQSRVFPLEKLKKDVETSTETYKISREELKNVDIEEYINTLRENSTEIDEIDALFQLMPTMRQFLRNNINQLMEKFHVAPPKKSEKPANRRVSFASSQDLENIKIMTASESLETPPEPIQKLAQKPEVFKSTQNLIDLNLNTAVKKPVVVASDDDEVVEDSEGELQIDEDDLANVTCATSVRNIGKSLCAEYIRGVRQICRICRLPSSANFKKVDLPNLPSSANFEICRTRQKFDSTISTKTTDFFAKNSQLIELVQQCGGEILSCYENLSPEKLYIIFSKHSKAIEESKNIENLYKCDVVTMEWVLDSISEYLILPTQPYKAVDSIGCLQD | not soluble
MSMMDKTVLYFGLVEISFDVPDFIFQKIKEQNNKIRYYSKSINILGSVKFINSNQQFIEYDGNGNILVYGRLKYFKEGISLYYIGEYLAECLLIEHSDTLLIHAAAVYNPLSGHSILLLGDKGAGKTTVAIRLCIEHGYHLIGNDQVIFGSNSGILLTYAGTSFFKIRRTAVLSDNLLFKLFSKFFNRSLQFNKASWDDKISIFPKELGIRTCNFSTEISKIYYIKTDKKEKQIYHSIWSDSLASLYLNELLGRHISGQVACFQSDNGKYFSTMPLINYEKNNRVREQIVKGIFAKQKLFKITAATPAKIAEAIIENVKKNS | not soluble
MTIHHHGSAERKSIDDYSDIPRGEACKQLVEQLNRNLYSLNSNMQTTFKQMVHVETRIGHEISLLSSCLQENMSKCTMPYAPHEEQLVQLDSAKRNLKQLTRLLDARQIFDAEDSQSEKLKDRAIDDSLLPTLVAIGDNLKIIKELGAKPKFDAETYHKTKDRYLAWKGTEFAVKFDTPGGLDDIFDAFTTLNSVNDFYRLYQHHFDQSLNNLNKNSGIEDEKSLKEMGTVFVTKAAEHFRTHIGSLCKYCDENEAFTRLLDAWKNYIKNGTLEKLFEQSMENYNNYDLLSDLKSVVTKAYEEFETNTAGGPEDDEESIENIERIIVDGLMESAKKPLSEKLRSMVEPPPLNFRSVAEVMSSLENFAYLLREISHQLLEIYLEDEGREFMISILKPIFTDYTMRLCRMEDNSTPKVKLEEYLERIALAGQLSTIVEEYKDQTEIKNGLELKNAKKWMNERVKDAIRASHRFVTDKMPNHGSETYKESADMAKSALPTPQDFVVTATQNLLHLLRFWEEALANENTKVALIAHVMDINKESLETPDDDAIFAAILDRIASHVVKKLLQSINDVWLTDGKTATLSKGLVKEFLCDAEYLRDALVDLRAGTHDNLDSTINKLREQLKTMS | not soluble
MDYREVDSTSEFVCRLEHGGDWRAQIEAFADEQGIDAGFFYGLGAVQDAELMFYDQDRTEYDSLTFDEPLEVAACMGNISHFDGERFAHTHAVLSRPDGEAVAGHLNAGTVWAGELYVRGFDTELQREHDEPTDLDLWNILEHHHHHH | not soluble
MINVLIIDDDAMVAELNRRYVAQIPGFQCCGTASTLEKAKEIIFNSDTPIDLILLDIYMQKENGLDLLPVLHNARCKSDVIVISSAADAATIKDSLHYGVVDYLIKPFQASRFEEALTGWRQKKMALEKHQYYDQAELDQLIHGSSSNEQDPRRLPKGLTPQTLRTLCQWIDAHQDYEFSTDELANEVNISRVSCRKYLIWLVNCHILFTSIHYGVTGRPVYRYRIQAEHYSLLKQYCQ | soluble
MGSDKIHHHHHHMEQHQVWAYQTKTHSVTLNSVDIPALAADDILVQNQAIGINPVDWKFIKANPINWSNGHVPGVDGAGVIVKVGAKVDSKMLGRRVAYHTSLKRHGSFAEFTVLNTDRVMTLPDNLSFERAAALPCPLLTAWQAFEKIPLTKQREVLIVGFGAVNNLLTQMLNNAGYVVDLVSASLSQALAAKRGVRHLYREPSQVTQKYFAIFDAVNSQNAAALVPSLKANGHIICIQDRIPAPIDPAFTRTISYHEIALGALHDFGDRQDWQILMQQGEALLTLIAQGKMEIAAPDIFRFEQMIEALDHSEQTKLKTVLTLNE | not soluble
